{"source": "patent US20120252054A1", "about": "“SYSTEM FOR TRANSFORMATION OF THE CHLOROPLAST GENOME OF SCENEDESMUS SP. AND DUNALIELLA SP” (priority 2009, published 2012)", "test": "Endoxylanase enzyme function assay on clarified lysates", "type": "biochemical, T. reesei", "conditions": "clarified lysates of S. dimorphus transformants (parent 2 and 4), normalized for total soluble protein, pH 4.8, 42 degrees Celsius", "protocol": "To determine if the endoxylanase produced by transformed algae cells was functional, endoxylanase activity was tested using an enzyme function assay. Briefly, algae cells were collected from TAP agar medium and suspended in BugBuster solution (Novagen). Cells were lysed by bead beating using zirconium beads. Cell lysates were clarified by centrifugation and the supernatants were normalized for total soluble protein (Coomassie Plus Protein Assay Kit, Thermo Scientific). 100 μL of each sample was mixed with 10 μL of 10× xylanase assay buffer (1M sodium acetate, pH=4.8) and 50 μL of the sample mixture was added to one well in a black 96-well plate. EnzCheck Ultra Xylanase substrate (Invitrogen) was dissolved at a concentration of 50 ug/ml in 100 mM sodium acetate pH 4.8, and 50 μL of substrate was added to each well of the microplate. The fluorescent signal was measured in a SpectraMax M2 microplate reader (Molecular Devices), with an excitation wavelength of 360 nm and an emission wavelength of 460 nm, without a cutoff filter and with the plate chamber set to 42 degrees Celsius. The fluorescence signal was measured for 15 minutes, and the enzyme velocity was calculated with Softmax Pro v5.2 (Molecular Devices). Enzyme velocities were recorded as RFU/minute. Enzyme specific activities were calculated as milliRFU per minute per μg of total soluble protein."}
{"molecule": "endoxylanse: endoxylanase from T. reesei (BD11) expressed in the S. dimorphus chloroplast (protein, codon optimized endoxylanase from T. reesei, endoxylanase from T. reesei (BD11) expressed in the S. dimorphus chloroplast) MVPVSFTSLLAASPPSRASCRPAAEVESVAVEKRQTIQPGTGYNNGYFYSYWNDGHGGVTYTNGPGGQFSVNWSNSGNFVGGKGWQPGTKNKVINFSGSYNPNGNSYLSVYGWSRNPLIEYYIVENFGTYNPSTGATKLGEVTSDGSVYDIYRTQRVNQPSIIGTATFYQYWSVRRNHRSSGSVNTANHFNAWAQQGLTLGTMDYQIVAVEGYFSSGSASITVSGTGDYKDDDDKSGENLYFQGHNHRHKHTG", "values": [{"measurement": "endoxylanase activity in transformants relative to wild type cells", "result": "at least 4 fold"}]}
